Data on one molecule can be found in PMC4232046 (2014).

This assay deals with Aspergillus fumigatus core CCAAT-binding complex (HapB(230–299), HapC(40–137), HapE(47–164)) (Aspergillus fumigatus). Kind of assay: SPR. A general note: Surface plasmon resonance follows binding to a sensor surface in real time, without labels.

B1: Aspergillus fumigatus HapX(24–158) (domain or fragment)
chain: SPSPGPGTPGSITSKEWVIPPRPKPGRKPATDTPPTKRKAQNRAAQRAFRERRAARVNELEEQIKKIEDEHEIHIAAFKEQITNLSREVEQCRSEMTWWRDRCHALEKEVSVERSAKEAIVKEFRSSLSDREAVR
B1 gave an equilibrium dissociation constant (Kd) of 35 nM.

What is called Kd is the equilibrium constant for the complex coming apart.
